# According to patent US10119122B2, “Differentiation and expansion of endothelial cells from pluripotent stem cells and the in vitro formation of vasculature like structures” (Academisch Ziekenhuis Leiden, priority 2013, dated 2018):
# Entries after “also recorded” stand apart in the source; their conditions may differ.
# What was measured:
# Type in all cases: cell-based, human
# [1] = test system: control iPSC-derived ECs co-cultured with control iPSC-derived pericytes/mesenchymal cells; assay: 2D endothelial-pericyte co-culture sprouting assay, control ECs; conditions: for formation of vascular/endothelial sprouts: TGFβ3 1 ng/ml, compared to control condition
# Experimental: (§1) The endothelial capillary-like network formation assay was carried out as previously described but with major modifications (Evensen et al., 2013). These included using both ECs and pericytes derived from human iPSC lines. This is described in more detail elsewhere (Orlova et al., manuscript in preparation). ECs were labelled with the general cytoplasmic labeling dye (PKH-26). For the sprouting assay, 12,000 ECs derived from both control and diseased lines were plated with 50,000 control iPSC-derived pericytes/well on 0.1% gelatin coated 96-well plates in EGM-2 (Lonza, CC-3162). Next day and on the day 4 of the assay, medium was replaced with new EGM-2 media containing tested compounds as indicated in the figure legends. Endothelial-pericyte co-culture was terminated on day 7 of the assay each well immunofluorescently stained for quantification, as follows: co-cultures were fixed with the 4% paraformaldehyde (PFA), permeabilized with the 0.1% TX-100 and blocked with the normal goat serum (Dako). Endothelial sprouts were visualized with the mouse anti-CD31 (Dako, 1:200). In some experiment with the mouse blocking antibodies, rabbit anti-CD31 (Scbt, 1:200) was used instead. Pericytes were visualized with antibodies against SM22 (Sigma, 1:200). The endothelial network was imaged with the BD Pathway 855 system using the 4× or 10× objective and 2×2 (or 3×3) Montage mode. Total area covered by the endothelial sprouts was quantified with the protocol developed within cell image analysis software CellProfiller (Broad Institute). High magnification images were acquired with the SP5 confocal microscope, using 10× and 40× objectives.
# A two-dimensional co-culture system was first established in vitro consisting of control iPSC-derived ECs cultured with the control iPSC-derived mesenchymal cells (FIG. 10A). The protocol was optimized and adapted to the BD Pathway 855 imaging system, based on the protocol initially described for the co-culture of HUVECs and vascular SMCs (vSMCs) (Evensen et al., 2013). On day 7 of the co-culture, iPSC-derived EC had organized and formed spouts on the top mesenchymal cells, as evidenced by immunofluorescent staining with the EC-specific CD31 and SMC-specific SM22 markers (FIG. 10B).
# (§2) Endothelial cell-pericyte co-culture was performed as described previously (Evensen et al., 2013) but using conditions optimized for iPSC-derived ECs and pericytes as described (Orlova et al., manuscript in preparation). In brief, 12,000 and 50,000 iPSC-derived ECs and pericytes were plated, respectively, in each well of a 96-well plate. Next day the co-cultures were refreshed with the specific treatment conditions indicated. The co-culture was fixed on day 7, and EC sprouts stained with anti-CD31 antibody (1:200, Dako) (as described in Orlova et al., manuscript in preparation). Pericytes were visualized with the anti-SM22 antibody (1:200, Abcam). The BD Pathway 855 system was used for automatic image acquisition, with the 4× objective and 2×2 (or in some cases 3×3) montage mode. CellProfiller (Broad Institute) custom pipeline was used for the image quantification.
# [2] = test system: iPSC-derived pericytes/mesenchymal cells; assay: Contractile smooth muscle marker expression in iPSC-derived pericytes/mesenchymal cells; conditions: stimulation with TGFb (FIG. 16)
# Experimental: Our differentiation system facilitates simultaneous derivation and expansion of pericytes and ECs from iPSC lines. […] Thus, a renewable source of pericytes/SMCs was created for co-culture with ECs that would in principle be able to simulate endothelial-pericyte interaction in humans.
# iPSC-derived pericytes/mesenchymal cells were derived from the CD31− fraction emerging during the endothelial differentiation protocol. CD31− cells were plated on gelatin coated plates in EGM-2 media (Lonza). After 4 days medium was replaced by DMEM+10% FBS supplemented with TGFβ3 (2 ng/ml, Peprotech) and PDGF-BB (4 ng/ml, Peprotech). iPSC-derived pericytes were routinely maintained on gelatin-coated plates in DMEM+10% FBS. Cells were characterized for the expression of pericyte and mesenchymal cell-specific markers by flow cytometry and immunofluorescent staining as describe above.
# ECs and pericytes were cultured as described above on gelatin coated coverslips. Cells were fixed with 4% PFA, permeabilized and stained with the following antibodies as described (Orlova et al., Manuscript in preparation): anti-Ve-Cadherin (1:200, CellSignaling), anti-vWF (1:200, Dako), anti-CD31 (1:200, Dako), anti-SM22a (1:200, Abcam), anti-SMA (1:400, Sigma), anti-CNN1 (1:200, Sigma).
# [3] = test system: HHT1-iPSC-derived ECs co-cultured with control iPSC-derived pericytes; assay: 2D endothelial-pericyte co-culture sprouting assay, HHT1 patient ECs; conditions: day 7, HHT1-iPSC ECs; for formation of endothelial sprouts: TGFβ3 1 ng/ml; for formation of the sprouting network: BMP9 1 ng/ml
# Experimental: as §1
# It was hypothesized that this system might be useful for distinguishing […] versus paracrine effects of endoglin deficiency in HHT1-iPSCs-derived ECs. Therefore, ECs from HHT-iPSC lines in the co-culture assay combined with the pericytes derived from the control iPSCs were examined. Little difference was observed between ECs from HHT1 and control iPSCs in co-culture. ECs from the patient harboring the 1083delAA and IVS 5+2 (T>C) mutation similar endothelial sprout formation as the controls (FIGS. 11A and 11B).
# as §2
# hPSCs = assay: Monolayer endothelial differentiation of hPSCs in defined medium, flow cytometry at day 10; conditions: additional Activin 25 ng/ml on days 0-3 (BVAC vs BVC); range of iPSC lines; data not shown
# Excerpt: hiPSC lines were generated from Fib or BOECs using conditional lentiviral vectors containing the four transcription factors oct4, c-myc, Klf4 and Sox2, and characterized as described previously (Dambrot et al., 2013; Freund et al., 2008; Orlova et al., manuscript in preparation). hiPSCs and hESC (line HES-NL4; (van de Stolpe et al., 2005)) were routinely maintained on growth factor reduced MATRIGEL®-(BD, 354230) coated plates in mTeSR media (StemCell Technologies, 05850) and passaged mechanically. Differentiation was induced three days after passaging colonies by replacing mTeSR medium with the differentiation media based on BPEL (without PVA) (Ng et al., 2008) with timed addition of the following growth factors: 25 ng/ml ActivinA (Miltenyi, 130-095-547), 30 ng/ml BMP4 (Miltenyi, 130-095-549), VEGF165 (R&D Systems, 293-VE) and small molecule inhibitor CHIR99021 (Tocris, 4423). At day 3 and day 7 of differentiation, the media was refreshed with BPEL containing VEGF and 5 μM SB43152 (Tocris, 1614) only.
# Cells were dissociated with TrypLE Select and washed once with the FACs buffer with the 10% FBS, followed by the single wash with the FACs buffer. […] In some experiment samples were analyzed with the MACSQuant VYB (Miltenyi). […]
molecule,measurement,setting,value
"C[C@H](NC(=O)Cc1cc(F)cc(F)c1)C(=O)N[C@H](C(=O)OC(C)(C)C)c1ccccc1 [DAPT, reference compound]",number of tip cells,"[1]; 2D co-culture system with DAPT, 46 without DAPT",64
"c1ccc2c(-c3cnn4cc(-c5ccc(N6CCNCC6)cc5)cnc34)ccnc2c1 [LDN1931189, reference compound]",sprout formation,"[1]; LDN1931189, inhibition of ALK1/ALK2/ALK3 pathway, day 7",no effect on sprout formation
"TGFβ3: growth factor TGFβ3 (Peprotech), transforming growth factor β ligand (protein, UniProt P10600 301-412, looked up, Transforming growth factor beta-3, growth factor TGFβ3 (Peprotech), transforming growth factor β ligand) Transforming growth factor …: ALDTNYCFRNLEENCCVRPLYIDFRQDLGWKWVHEPKGYYANFCSGPCPYLRSADTTHSTVLGLYNTLNPEASASPCCVPQDLEPLTILYYVGRTPKVEQLSNMVVKSCKCS",up-regulation of vSMC contractile markers,[2],up-regulation of vSMC markers
same,formation of vascular/endothelial sprouts,[1]; day 7,dramatic reduction in the formation of the vascular sprouts; also recorded: inhibits sprout formation in all lines
same,formation of vascular/endothelial sprouts,"[1]; day 7, listed as TGFβ",inhibited endothelial network formation
same,formation of endothelial sprouts,[3],inhibits sprout formation in all lines
same,formation of endothelial sprouts,[3]; listed as TGFβ,inhibited formation of the endothelial sprouts; also recorded: inhibited endothelial network formation
"Activin: growth factor ActivinA (Miltenyi), 25 ng/ml in mesoderm induction medium (protein, UniProt P08476 311-426, looked up, Inhibin beta A chain) Inhibin beta A chain: GLECDGKVNICCKKQFFVSFKDIGWNDWIIAPSGYHANYCEGECPSHIAGTSGSSLSFHSTVINHYRMRGHSPFANLKSCCVPTKLRPMSMLYYDDGQNIIKKDIQNMIVEECGCS",robustness and reproducibility of differentiation,hPSCs,more robust and reproducible differentiation
"TRC105: anti-endoglin blocking antibody, in clinical trial as an anti-tumor therapy (antibody, chains of the INN, looked up, V domains shown) VH: EVKLEESGGGLVQPGGSMKLSCAASGFTFSDAWMDWVRQSPEKGLEWVAEIRSKASNHATYYAESVKGRFTISRDDSKSSVYLQMNSLRAEDTGIYYCTRWRRFFDSWGQGTTLTVSS VL: QIVLSQSPAILSASPGEKVTMTCRASSSVSYMHWYQQKPGSSPKPWIYATSNLASGVPVRFSGSGSGTSYSLTISRVEAEDAATYYCQQWSSNPLTFGAGTKLELK",formation of sprouts by ECs,"[1]; TRC105 120 μg/ml, day 7",reduction in the formation of the sprouts; also recorded: significantly reduced sprouting
same,surface area covered by ECs,"[1]; TRC105, co-culture assay",significantly reduced
"BMP9: BMP9 (R&D), ligand for signaling in ECs, circulating vascular quiescence factor (protein, UniProt Q9UK05 320-429, looked up) Growth/differentiation factor …: SAGAGSHCQKTSLRVNFEDIGWDSWIIAPKEYEAYECKGGCFFPLADDVTPTKHAIVQTLVHLKFPTKVGKACCVPTKLSPISVLYKDDMGVPTLKYHYEGMSVAECGCR",formation of the sprouting network,"[1]; BMP9 1 ng/ml, day 7, control iPSC ECs, listed as BMP-9",no effect at all
same,formation of the sprouting network,[3],selective inhibitory effect in HHT1-iPSC-derived ECs only
same,formation of the sprouting network,[3]; listed as BMP-9,significant inhibition
